Measurements taken from publication PMC9403361.

Biological target: Rabenosyn-5 (as printed for the GST pull-down of Figure 7)
Assay: pull-down; GST-effector fusion protein on glutathione-Sepharose beads incubated with clarified lysate of transfected cells for 1 h at 4 °C; lysis buffer 20 mM Hepes pH 7.4, 100 mM NaCl, 5 mM MgCl2, 0.1% NP40, 10% glycerol, 1 mM DTT; washed 3 times with PBS-T (1% Triton X-100); immunoblot with anti-Myc or anti-Rab antibody, bands quantified with LI-COR Odyssey

fold binding to Rabenosyn-5 relative to EEA1: 2 to 3 fold
Substance: Rab22 (from UniProt Q9UL26 1-194) (natural protein)
